According to paper PMC1238745 (2005):

Assays:
Test in all cases: NMR
Bax BH3 peptide BH3 = biological target: T1, Bax BH3 peptide BH3 (Homo sapiens, UniProt Q07812)
T1 chain: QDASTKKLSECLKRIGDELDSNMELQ

Bak BH3 peptide BH3 = biological target: T2, Bak BH3 peptide BH3 (Homo sapiens, UniProt Q16611)
T2 chain: GQVGRQLAIIGDDINR

Bad BH3 peptide BH3 = biological target: T3, Bad BH3 peptide BH3 (Homo sapiens, UniProt Q92934)
T3 chain: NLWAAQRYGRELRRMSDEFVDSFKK

B1: v-Bcl-2 (protein)
chain: MSHKKSGTYWATLITAFLKTVSKVEELDCVDSAVLVDVSKIITLTQEFRRHYDSVYRADYGPALKNWKRDLSKLFTSLFVDVINSGRIVGFFDVGRYVCEEVLCPGSWTEDHELLNDCMTHFFIENNLMNHFPLEDIFLAQRKFQTTGFTFLLHALAKVLPRIYSGNVIYV
Q: What does the source list for B1?
A: Kd (Bax BH3 peptide BH3): < 5 µM; Kd (Bak BH3 peptide BH3): < 5 µM; Kd (Bad BH3 peptide BH3): > 300 µM
